From patent US20210393689A1 (JUNO THERAPEUTICS, published 2021)

B1: GPRC5D-204 scFv clone (scFv, V domains shown)
VH: EVQLVESGGGLVQPGGSLRLSCAASGFTFSNYAMSWVRQAPGKGLEWVSAISGSGNTYYADSVKGRFTISRDNSKNTLYLQMNSLRAEDTAVYYCARGSVRYTDIWGQGTLVTVSS
VL: NFMLTQPHSVSESPGKTVSISCTRTSGAIAGAYVQWFQQRPGSAPTTVIYDDNKRPSGVPDRFSGSIDKSSNSASLTISGLKTEDEADYYCQSYDYDSSNVLFGGGTKLTVLG
notes: Human scFv from a phage display library
B2: GPRC5D-203 VL/VH, long spacer CAR but lacking the signaling domains (other)
chain: SSELTQDPAVSVALGQTVRITCQGDSLRSYYASWYQQKPGQAPVLVIYGKNNRPSGIPDRFSGSSSGNTASLTITGAQAEDEADYYCNSRDSSGNPPVVFGGGTKLTVLGSRGGGGSGGGGSGGGGSLEMAQVQLVESGGGLVHPGGSLRLSCAASGFTFRSHSMNWVRQAPGKGLEWVSSISSDSTYTYYADSVKGRFTISRDNAKNSLYLQMNSLRAEDTAVYYCARSGGQWKYYDYWGQGTLVTVSSESKYGPPCPPCPAPPVAGPSVFLFPPKPKDTLMISRTPEVTCVVVDVSQEDPEVQFNWYVDGVEVHNAKTKPREEQFQSTYRVVSVLTVLHQDWLNGKEYKCKVSNKGLPSSIEKTISKAKGQPREPQVYTLPPSQEEMTKNQVSLTCLVKGFYPSDIAVEWESNGQPENNYKTTPPVLDSDGSFFLYSRLTVDKSRWQEGNVFSCSVMHEALHNHYTQKSLSLSLGKMFWVLVVVGGVLACYSLLVTVAFIIFWV
notes: Transiently expressed on HEK293 cells from a cell surface expression vector with cytoplasmic mCherry; also called non-signaling CAR
B3: GPRC5D-202 VH/VL - long (anti-GPRC5D CAR) (protein)
chain: EVQLVESGGGLVKPGGSLRLSCAASGFTFSDYYMSWIRQAPGKGLEWVSYISSSGSTIYYADSVKGRFTISRDNAKNSLYLQMNSLRAEDTAVYYCARGYGKAYDQWGQGTLVTVSSGSRGGGGSGGGGSGGGGSLEMAQSVLTQPPSASGTPGQRVTISCSGSRSNVGGNYVFWYQQVPGATPKLLIYRSNQRPSGVPDRFAGSKSGSSASLAISGLRSEDEADYYCATWDDSLSGFVFGTGTKVTVLESKYGPPCPPCPAPPVAGPSVFLFPPKPKDTLMISRTPEVTCVVVDVSQEDPEVQFNWYVDGVEVHNAKTKPREEQFQSTYRVVSVLTVLHQDWLNGKEYKCKVSNKGLPSSIEKTISKAKGQPREPQVYTLPPSQEEMTKNQVSLTCLVKGFYPSDIAVEWESNGQPENNYKTTPPVLDSDGSFFLYSRLTVDKSRWQEGNVFSCSVMHEALHNHYTQKSLSLSLGKMFWVLVVVGGVLACYSLLVTVAFIIFWVKRGRKKLLYIFKQPFMRPVQTTQEEDGCSCRFPEEEEGGCELRVKFSRSADAPAYQQGQNQLYNELNLGRREEYDVLDKRRGRDPEMGGKPRRKNPQEGLYNELQKDKMAEAYSEIGMKGERRRGKGHDGLYQGLSTATKDTYDALHMQALPPR
B4: GPRC5D-203 scFv clone (scFv, V domains shown)
VH: QVQLVESGGGLVHPGGSLRLSCAASGFTFRSHSMNWVRQAPGKGLEWVSSISSDSTYTYYADSVKGRFTISRDNAKNSLYLQMNSLRAEDTAVYYCARSGGQWKYYDYWGQGTLVTVSS
VL: SSELTQDPAVSVALGQTVRITCQGDSLRSYYASWYQQKPGQAPVLVIYGKNNRPSGIPDRFSGSSSGNTASLTITGAQAEDEADYYCNSRDSSGNPPVVFGGGTKLTVLG
notes: as for B1
B5: GPRC5D-200 scFv clone (scFv, V domains shown)
VH: EVQLVESGGAFVQPGGSLRLSCAASGFTFSSYAMTWVRQAPGKGLEWVSTISGRGRSTFYADSVKGRFTISRDNSKNTLYLQMNSLRAEDTAVYYCARYYHAGAFDLWGQGTLVTVSS
VL: QSVVTQPASVSGSPGQSITISCTGTSSDVGGYNYVSWYQQHPGKAPKLMIYDVSKRPSGVSNRFSGSKSGNTASLTISGLQAEDEADYYCSSYTSSSTLVFGGGTKLTVLG
notes: Human scFv from a B cell-derived phage display library
B6: GPRC5D-201 scFv clone (scFv, V domains shown)
VH: QMQLVQSGAEVKKPGASVKVSCKASGYTFNRYAITWVRQAPGQGLEWMGWISAYNGNSHYAQKLQGRVTMTTDTSTGTAYMELRRLRSDDTAVYYCARMAYDSWGQGTLVTVSS
VL: QSVLTQPASVSGSPGQSLTISCTGTSNDVGAYKYVSWYQQYPGKAPKLILYDVFKRPSGVSNRFSGSKSDNTASLTISGLQAEDEADYYCFSLTSSNTYVFGTGTKVTVLG
notes: as for B1
B7: GPRC5D-202 scFv clone (scFv, V domains shown)
VH: EVQLVESGGGLVKPGGSLRLSCAASGFTFSDYYMSWIRQAPGKGLEWVSYISSSGSTIYYADSVKGRFTISRDNAKNSLYLQMNSLRAEDTAVYYCARGYGKAYDQWGQGTLVTVSS
VL: QSVLTQPPSASGTPGQRVTISCSGSRSNVGGNYVFWYQQVPGATPKLLIYRSNQRPSGVPDRFAGSKSGSSASLAISGLRSEDEADYYCATWDDSLSGFVFGTGTKVTVLG
notes: as for B1
B8: GPRC5D-205 scFv clone (scFv, V domains shown)
VH: EVQLVESGGGLIQPGGSLRLSCAASGFTFSNYAMNWVRQAPGKGLEWVSTINGRGSSTIYADSVKGRFTISRDNSKNTLYLQMNSLRAEDTATYYCARYISRGLGDSWGQGTLVTV
VL: QSVVTQPPSMSAAPGQQVTISCSGGNSNIERNYVSWYLQLPGTAPKLVIFDNDRRPSGIPDRFSGSKSGTSATLGITGLQTGDEADYYCGTWDSSLRGWVFGGGTKLTVLG
notes: as for B1
B9: GPRC5D-206 scFv clone (scFv, V domains shown)
VH: QVQLVQSGAEVKKPGASVKVSCKASGYTFTSYYMHWVRQAPGQGLEWMGIINPSGGSTRYAQKFQGRVTMTRDTSTSTVYMELSSLRSEDTAVYYCARGSSRWGGWTGDYWGQGTLVTVSS
VL: QSALTQPASVSGSPGQSITISCTGTSSDVGGYNFVSWYQQHPGKAPKVMIYDVSKRPSGISNRFSGSKSGNTASLTISGLQVEDEAEYYCSSYTSTRTVIFAGGTKVTVLG
notes: as for B1

Experiments:
[1] = target: T1, human G protein-coupled receptor class C group 5 member D (GPRC5D) (human, UniProt Q9NZD1 1-345); experiment: scFv phage clones from panning on hGPRC5D-aAPCs, binding to MM cell lines MM.1S and NCI-H929 (endogenous GPRC5D)
T1 construct: also called hGPRC5D

[2] = target: T1, human G protein-coupled receptor class …; experiment: cell-cell interaction by automated flow cytometry: HEK293 cells with the non-signaling GPRC5D-203 long spacer CAR (mCherry) against HEK293 cells each expressing one human GPCR (GFP); Z-score
Experimental: In parallel, the cDNA of individual receptors from a library of human GPCRs, in a vector expressing cytoplasmic GFP, was transiently expressed in the HEK293 cells. […] Binding was determined using an automated flow cytometric assay that detects cell-cell interaction.

[3] = target: cynomolgus GPRC5D (cynomolgus); experiment: cell-based or functional assay
[4] = target: T1, human G protein-coupled receptor class …; experiment: ELISA-based epitope mapping on overlapping 15-mer peptides of the GPRC5D extracellular domains linked to scaffolds (linear, conformational, discontinuous)

T1 sequence (Q9NZD1 whole entry): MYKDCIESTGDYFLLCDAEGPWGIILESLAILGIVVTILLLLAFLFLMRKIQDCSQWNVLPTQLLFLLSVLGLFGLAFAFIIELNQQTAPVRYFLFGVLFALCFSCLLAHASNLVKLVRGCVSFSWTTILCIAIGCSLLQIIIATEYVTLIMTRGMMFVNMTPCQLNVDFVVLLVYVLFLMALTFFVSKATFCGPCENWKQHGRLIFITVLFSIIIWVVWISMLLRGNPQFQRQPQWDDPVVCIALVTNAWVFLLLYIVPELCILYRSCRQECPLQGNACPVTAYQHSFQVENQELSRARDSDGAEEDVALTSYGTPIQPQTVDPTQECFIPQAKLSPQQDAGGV

Binder | binding result [1] | binding result [4] | further results
B1 | binds |  | 
B2 |  |  | binding result [2]: binds
B3 |  |  | interferon gamma release by CAR-transduced NHP T cells [3]: 10000 pg/mL
B4 |  | binds | 
B5 | binds |  | 
B6 |  | binds | 
B7 |  | binds | 
B8 |  | binds | 
B9 | binds |  | 
